Source: the DeepSol protein solubility set

Assay: soluble on expression in E. coli; label from the status in PepcDB or PDB records

Sequence | soluble on expression in E. coli
MSLSKIFVTGATGLIGIKLVQRLKEEGHEVAGFTTSENGQQKLAAINVKAYIGDILKADTIDQALADFKPEIIINQITDLKNVDMAANTKVRIEGSKNLIDAAKKHDVKKVIAQSIAFMYEPGEGLANEETSLDFNSTGDRKVTVDGVVGLEEETARMDEYVVLRFGWLYGPGTWYGKDGMIYNQFMDGQVTLSDGVTSFVHLDDAVETSIQAIHFENGIYNVADDAPVKGSEFAEWYKEQLGVEPNIDIQPAQPFERGVSNEKFKAQGGTLIYKTWKDGMNPIKEGHHHHHH | soluble
MSLSKVRISSKIEDCEEIINQYGGNYLSHLIYSGDKQFFTNENKTAFLMYRYKASSLVVLGDPLGDENAFDELLEAFYNYAEYLGYDVIFYQVTDQHMPLYHNFGNQFFKLGEEAIIDLTQFSTSGKKRRGFRATLNKFDELNISFEIIEPPFSTEFINELQHVSDLWLDNRQEMHFSVGEFNEEYLSKAPIGVMRNEENEVIAFCSLMPTYFNDAISVDLIRWLPELDLPLMDGLYLHMLLWSKEQGYTKFNMGMATLSNVGQLHYSYLRERLAGRVFEHFNGLYRFQGLRRYKSKYNPNWEPRFLVYRKDNSLWESLSKVMRVIRHKEGHHHHHH | soluble
MSLSLEEALLFREATVTDLKSIMNVENAAFTVPWTEAAFRNEFIINQYAYYLLAIYKEQVVGYAGVWLVLDEGHITNIAIHPDYQGNHYGEALLREMIRVAKERGVVRMTLEVRVSNDVAQGLYKKLGFQDGAIRKNYYPDTKEDALVMWVDLEGHHHHHH | soluble
MSLSLESLEWMAFDSFLLWRSEESIDARILLVEINQNDNYSLTSTISNSSFIGVIEKLQVYQPKVIGLEVDQHLLINSQEDKLAKIFQKYKNLIANEKILPLQVHSYLDLPNEQITFADQILDNDGKSRRSLLAINTSNGYKLSLAMELARIYLAEKNISLENSRLGKTKLPRFLPNSGGYIRADASGFQVLINFRSGNQRFRTLSGEDIKNGKFNPEWIRDRIVIIGITNTHNQGFIPTSAITSVKSASTQVNKLEIQAHAISQIISAVLDGRPLINTWNDGEGHHHHHH | not soluble
MSLSLLVIGSLAFDDIETPFGRSDNTLGGSSTYIALSASYFTDEPIRMVGVVGSDFGKEHFDLLHAKNIDTRGIQVIEDGKTFRWAGRYHYDMNTRDTLDTQLNVFAEFDPHVPQYYRDSKFVCLGNIDPELQLKVLDQIDDPKLVVCDTMNFWIEGKPEELKKVLARVDVFIVNDSEARLLSGDPNLVKTARIIREMGPKTLIIKKGEHGALLFTDNGIFAAPAFPLESIYDPTGAGDTFAGGFIGHLARCGNTSEAEMRKAVLYGSAMASFCVEQFGPYRYNDLDLLEVDDRYQSFLELSRIEEGHHHHHH | soluble
MSLSMLPSFGFTQEQVACVCEVLQQGGNLERLGRFLWSLPACDHLHKNESVLKAKAVVAFHRGNFRELYKILESHQFSPHNHPKMQQLWLKAHYVEAEKLRGRPLGAVGKYRVRRKFPLPRTIWDGEETSYCFKEKSRGVLREWYAHNPYPSPREKRELAEATGMTTTQVSNWFKNRRQRDRAAEAKERENTENEGHHHHHH | not soluble
MSLSNLINGKIPNQAIQTLKIVKDLFGSSIVGVYLFGSAVNGGLRINSDVDVLVVVNHSLPQLTRKKLTERLMTISGKIGNTDSVRPLEVTVINRSEVVPWQYPPKREFIYGEWLRGEFENGQIQEPSYDPDLAIVLAQARKNSISLFGPDSSSILVSVPLTDIRRAIKDSLPELIEGIKGDERNVILTLARMWQTVTTGEITSKDVAAEWAIPLLPKEHVTLLDIARKGYRGECDDKWEGLYSKVKALVKYMKNSIETSLNEGHHHHHH | soluble
MSLSNLTSQLHNFFSAQLAGVSDEVRVSIRTAPNLLPPCEQPLLSMSNNSRLWGNVNVLARCGNDKRYLQVNVQATGNYVVAAMPIARGGKLEAGNVKLKRGRLDTLPPRTVLDINQLVDAISLRDLSPDQPIQLTQFRQAWRVKAGQRVNVIASGDGFSANAEGQALNNAAVAQNARVRMVSGQVVSGVVDADGNILINLEGHHHHHH | soluble
MSLSNMTQQTRTQQARETMKRVYRYQAANQTRSVIRRSGKTRFIKDTDWERGVFWSCVAAAWLATDDAEYLEGVMNYTLHTGFRPGPNLRFADDLICCQAYLDVWPQIAVPEALEPTIKAVSAMVDEPKPGREDWWWCDSLFMAPATFAALSQRTGDARYLAYMDTAFWDAVDYLRDPDSGLFYRDHRYIPDGNGTELREENGEKVFWSRGIGWVLAAIPRLLARMPEDYTGRQRYLDLFTDLADKVIRYQQADGLWRTSLLDPQRFPAPESSATALFCYGLSWGINQGILAPETYLPVVEKAWDALQGCIHDNGMMGWVQLPAFNPRDVKFEHNMDYGAGAYLLAASEMLRLAEGHHHHHH | soluble
MSLSNTSASFGFKDVDASLKAGLVRGVFDRVAKNYDIMNDLMSGGVHRLWKDAVAARLNPQPGEVIIDCAGGTGDMARRFAKMARKAQERRGGPDATINIVDYNAEMIMAGIERGGEPEITWTVGDAQRLPLPDAYADAYVISFGIRNVTDINAALREARRVLKPGGRFLCLEFSRPVTEPLAKAYDAYSFKVIPQVGEWVAKDRDAYQYLVESIRRFPDQRTFAGMIEAAGFKRVTFTNFTGGVAALHQGWAIEGHHHHHH | not soluble
MSLSPAGGPDLAALAASSTSIDLPYLLAGVENENELDLYVVPSGKPVAVRAATFDSERQVYSLALDNPQRILTWTPASAPGGDEGNSTSLPLVPPGTVVYTGSSLNPVVTEQEGYPALDLLDQERLIITFPMDSGLPPILVVFKSPRYEAGTSTGHGLEHHHHHH | soluble
MSLSPARAQEEISRLQQQIKQWDDDYWKEGKSEVEDGVYDQLSARLTQWQRCFGSEPRDVMMPPLNGAVMHPVAHTGVRKMVDKNALSLWMRERSDLWVQPKVDGVAVTLVYRDGKLNKAISRGNGLKGEDWTQKVSLISAVPQTVSGPLANSTLQGEIFLQREGHIQQQMGGINARAKVAGLMMRQDDSDTLNSLGVFVWAWPDGPQLMSDRLKELATAGFTLTQTYTRAVKNADEVARVRNEWWKAELPFVTDGVVVRAAKEPESRHWLPGQAEWLVAWKYQPVAQVAEVKAIQFAVGKSGKISVVASLAPVMLDDKKVQRVNIGSVRRWQEWDIAPGDQILVSLAGQGIPRIDDVVWRGAERTKPTPPENRFNSLTCYFASDVCQEQFISRLVWLGAKQVLGLDGIGEAGWRALHQTHRFEHIFSWLLLTPEQLQNTPGIAKSKSAQLWHQFNLARKQPFTRWVMAMGIPLTRAALNASDERSWSQLLFSTEQFWQQLPGTGSGRARQVIEWKENAQIKKLGSWLAAQQITGFEEGHHHHHH | soluble
MSLSQERFRVKYQIFEESKRAKEIAEAICVEQTIEFPIELTGNSIRENVVGKIEEIQNNHNSTVVTISYPVETVGNEPAQFFNVIMGNCSLFPNLKIIGLQLSPSIENIFPGPRYGISGLRKLLSIYNRPLLATAIKPMGLSTDQLAQMAYNLALGGVDIIKDDHGLADQPFSKFKDRVLKVTEAIHKANRETGFHTIYAPNITSNEQTMLKQAEFVKEAGSGALLVSPALSGFSSFITLRENTDLPILSHPAFLGGYLSIMDFDVLFGTIQRMIGADVVIFPNYGGRFTFSKEDCRKINHGLKKPFGSFKEIFPSPAGGMNIDSCGDIVSFYNKDVVLLIGGALHKAGADLTENVKAFKAQVEKIHVREGHHHHHH | soluble
MSLSQLREIQQQFMDYLLASAAQTPIPETIEKPFSDKVAEQGGVGRDIRMQIYANAYRIRLTEVLDTDHEILGLYLGDDLFARMANGYIAHQPSRFTSLRQFADALPGYLASDAFFSQYPIISDIARFERRLLNAFDAKDEQRASFAALQSLPADAWPYCQLRFHPSVQLFECASNAVETWQALKHQQVPPAPDYQGKHAWLLWRGENRLTEFISLAEYQLALIQGFIHGANIAEQCELMLNFFTPEEAMQQLLQALQAWFQLGLILSVQPNEGHHHHHH | not soluble
MSLSRFYHNLKFRSIPTTCATAQMCADRDEMQDSLICIPHFAAPEHYLFAGIDGHSGKYVSYKFSIRFPEIFYEMLSRDSGALNIIDALYQSFDTIQNEFANDPNVTDGAVATVIFMTPTKIYTAQCGDCRAVYITSSGVVQLAPEHKTSDRIEQMRIRSQGGFVSENLRVCGLLVARSVGDVKNKPIITHVPDITCFDRRDDEEYLVVATDGVWDEISNLKIHDILHSNRRVYRTSELSGLVKDIACVSCISGQHPDNIGIVLCRFEGHHHHHH | soluble
MSLSSERVLSNARVVSAERVFVGSVLLRDGLIAAVDEGRSHLAGAEDLGGDYLLPGLVELHTDNLEKHMTPRPGVDWPSASAVLAHDAQIVSAGITTVFDALSIGDVNPKGKRMQQLPKMLEAIGEAAASGDARADHRLHLRCEVSHPQTLEVFRELVEHPLVQLVSVMDHAPGQRQFARLEKYREYYQGKYHLSDAEMDAFIVEQVANSERYSDAARAAIVDVCQGRGLSVASHDDATLAHVRESAGYGMAIAEFPTTVEAARASHEHGLQVLMGAPNVVRGGSHSGNVAAAQLAGIGVLDILSSDYYPASLLHAALLLAGEHSEYDAIRYDLPRAVAMVSRTPALAAGLTDRGEIRVGLRADLLQARALGNNQPVVRQVWRGGQRVFEGHHHHHH | soluble
MSLSTVISSEASNYDHWAWLYNHTLGPRYSEQKIAPLARAVLSQLPNGASVLDLCCGTGHLAKLMADRGYAVTGLDGSQDMINHARGNAPDLEFVLGDARDFTFEQPFDGVVCTSASLNHIQNTEDLRKVFSSVRRCLKDEGIFAFDINHPGQMARYWRDVPAEGELTDDYAWLITPRYNSQSNEGSFTVEIHTRPKAARFSLAEAAYRLAARLLSNRRRLALIARFGIPGNNWERHSVTNPVWGHDLDTVTELLRASGFSVKMRSTDGGPVTDERAVYFLCTKIAGDRAGQEVTKEAVEEGHHHHHH | soluble
MSLSWIYDAHIHLSDPEYKSDMNMILNYMDLLKIKACCVSMDLETSNETMSLYEKSKNILPFIGIHPEMAQKESKPVYDLIEKNNEIISGVGEIGLDRTYIDTEDEWNVQKEVFSKQLSLAEKFNKPVSIHSRKTLSDIFEILPSYKIPGILLHWFDGNKSQLRTAMDNEYFVSYGPLLIYAHDKQTLLTKTDPNRLLVETDGPVKFSRCFEYKTTEIMFVSSVIFCASKLLHMPYEKLLEQIEGNSKRFLGIEGHHHHHH | soluble
MSLSWLGNDDRRKKDPEVFQTVSDGLKKLYKTKLLPLEEYYRFHEFHSPALEDADFDNKPMVLLVGQYSTGKTTFIRYLLEQDFPGMRIGPEPTTDSFIAVMQGDVEGIIPGNALVVDPKKPFRKLNAFGNAFLNRFVCAQLPNAVLESISVIDTPGILSGEKQRISRGYDFAAVLEWFAERVDRIILLFDAHKLDISDEFSEVIKALKNHEDKMRVVLNKADQIETQQLMRVYGALMWSLGKIVNTPEVIRVYIGSFWSHPLLIPDNRKLFEAEEQDLFRDIQSLPRNAALRKLNDLIKRARLAKVHAYIISSLKKEMPSVFGKDTKKKELVNNLAEIYGRIEREHQISPGDFPNLKKMQDQLQAQDFSKFQPLKSKLLEVVDDMLAHDIAQLMVLVRQEETQRPVQMVKGGAFEGTLQGPFGHGYGEGAGEGIDDAEWVVARDKPMYDEIFYTLSPVDGKITGANAKKEMVRSKLPNSVLGKIWKLADIDKDGMLDDEEFALANHLIKVKLEGHELPSELPAHLLPPYKRKVSEGHHHHHH | soluble
MSLSYLTEEKLTIVGAAGMIGSNMAQTAAMMRLTPNLCLYDPFAVGLEGVAEEIRHCGFEGLNLTFTSDIKEALTDAKYIVSSGGAPRKEGMTREDLLKGNAEIAAQLGKDIKSYCPDCKHVIIIFNPADITGLVTLIYSGLKPSQVTTLAGLDSTRLQSELAKHFGIKQSLVTNTRTYGGHGEQMAVFASTAKVNGTPLTDLIGTDKLTNEQWAELKQRVVKGGANIIKLRGRSSFQSPSYVSIEMIRAAMGGEAFRWPAGCYVNVPGFEHIMMAMETTITKDGVKHSDINQLGNEAERAALKESYSHLAKLRDEVIAMGIIPAIADWKTVNPNEGHHHHHH | soluble
